Measured values published in US20230080224A1 (AGENCY FOR SCIENCE TECHNOLOGY AND RESEARCH, published 2023).

T1: ALPI (screening and SPR/ELISA protein) (UniProt P09923 20-503, limits assumed)
T1 sequence (looked up): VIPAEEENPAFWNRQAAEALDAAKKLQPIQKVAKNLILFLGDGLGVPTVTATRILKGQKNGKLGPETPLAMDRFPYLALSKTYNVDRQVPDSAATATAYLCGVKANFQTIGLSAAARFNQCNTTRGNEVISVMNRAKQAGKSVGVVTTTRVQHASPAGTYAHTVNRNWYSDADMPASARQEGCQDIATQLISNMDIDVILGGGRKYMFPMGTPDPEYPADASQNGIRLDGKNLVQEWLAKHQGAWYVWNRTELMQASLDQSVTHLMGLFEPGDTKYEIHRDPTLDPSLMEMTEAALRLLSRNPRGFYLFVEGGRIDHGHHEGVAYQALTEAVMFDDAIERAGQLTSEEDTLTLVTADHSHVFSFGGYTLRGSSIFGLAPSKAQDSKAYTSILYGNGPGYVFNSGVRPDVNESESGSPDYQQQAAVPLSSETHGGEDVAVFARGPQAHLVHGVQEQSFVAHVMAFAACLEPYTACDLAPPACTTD

T2: human ALPPL2 (recombinant protein) (human, UniProt P10696 20-503)
T2 chain: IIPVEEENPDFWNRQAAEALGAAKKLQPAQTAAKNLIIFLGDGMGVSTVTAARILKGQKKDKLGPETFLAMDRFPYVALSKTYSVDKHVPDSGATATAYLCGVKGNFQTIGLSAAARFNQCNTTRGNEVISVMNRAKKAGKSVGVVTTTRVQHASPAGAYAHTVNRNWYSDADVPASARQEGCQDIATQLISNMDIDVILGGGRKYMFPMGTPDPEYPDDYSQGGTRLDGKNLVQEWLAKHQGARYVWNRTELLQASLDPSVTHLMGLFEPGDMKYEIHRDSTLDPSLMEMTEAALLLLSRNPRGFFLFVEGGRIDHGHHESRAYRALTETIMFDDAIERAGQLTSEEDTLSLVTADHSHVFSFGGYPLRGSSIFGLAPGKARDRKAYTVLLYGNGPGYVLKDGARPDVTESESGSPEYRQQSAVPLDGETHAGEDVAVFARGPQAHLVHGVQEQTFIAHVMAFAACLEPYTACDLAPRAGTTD

T3: human ALPP (recombinant protein) (human, UniProt P05187 23-506)
T3 chain: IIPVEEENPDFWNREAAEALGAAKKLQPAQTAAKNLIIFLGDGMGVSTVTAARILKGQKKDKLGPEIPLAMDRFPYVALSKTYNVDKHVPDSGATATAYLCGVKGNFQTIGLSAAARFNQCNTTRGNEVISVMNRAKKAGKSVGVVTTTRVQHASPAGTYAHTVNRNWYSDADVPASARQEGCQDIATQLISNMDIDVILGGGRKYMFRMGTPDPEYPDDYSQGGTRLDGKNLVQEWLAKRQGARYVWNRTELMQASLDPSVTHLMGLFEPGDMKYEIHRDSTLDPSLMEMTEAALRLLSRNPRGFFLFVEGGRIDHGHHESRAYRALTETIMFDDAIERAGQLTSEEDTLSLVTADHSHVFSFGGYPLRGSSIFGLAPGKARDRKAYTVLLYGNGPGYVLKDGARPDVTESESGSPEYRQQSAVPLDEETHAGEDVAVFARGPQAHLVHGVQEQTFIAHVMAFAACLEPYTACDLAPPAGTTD

T4: human ALPI expressed on cells (human, UniProt P09923 20-503)
T4 construct: whole, on cells
T4 sequence (looked up): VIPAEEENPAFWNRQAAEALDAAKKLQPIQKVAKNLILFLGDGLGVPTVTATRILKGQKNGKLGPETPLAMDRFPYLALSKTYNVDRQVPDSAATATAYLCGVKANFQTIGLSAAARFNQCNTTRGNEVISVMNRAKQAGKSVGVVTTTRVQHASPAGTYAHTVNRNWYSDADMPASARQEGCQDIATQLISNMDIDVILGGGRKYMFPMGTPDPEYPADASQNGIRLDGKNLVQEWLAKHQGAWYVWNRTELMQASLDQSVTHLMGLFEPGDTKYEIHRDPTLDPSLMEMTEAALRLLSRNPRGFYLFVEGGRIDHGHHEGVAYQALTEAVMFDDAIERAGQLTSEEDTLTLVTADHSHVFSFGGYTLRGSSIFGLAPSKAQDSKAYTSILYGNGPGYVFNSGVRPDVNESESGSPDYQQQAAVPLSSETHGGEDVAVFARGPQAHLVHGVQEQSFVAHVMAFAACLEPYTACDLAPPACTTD

T5: human ALPL expressed on cells (human, UniProt P05186 18-501)
T5 construct: whole, on cells
T5 sequence (looked up): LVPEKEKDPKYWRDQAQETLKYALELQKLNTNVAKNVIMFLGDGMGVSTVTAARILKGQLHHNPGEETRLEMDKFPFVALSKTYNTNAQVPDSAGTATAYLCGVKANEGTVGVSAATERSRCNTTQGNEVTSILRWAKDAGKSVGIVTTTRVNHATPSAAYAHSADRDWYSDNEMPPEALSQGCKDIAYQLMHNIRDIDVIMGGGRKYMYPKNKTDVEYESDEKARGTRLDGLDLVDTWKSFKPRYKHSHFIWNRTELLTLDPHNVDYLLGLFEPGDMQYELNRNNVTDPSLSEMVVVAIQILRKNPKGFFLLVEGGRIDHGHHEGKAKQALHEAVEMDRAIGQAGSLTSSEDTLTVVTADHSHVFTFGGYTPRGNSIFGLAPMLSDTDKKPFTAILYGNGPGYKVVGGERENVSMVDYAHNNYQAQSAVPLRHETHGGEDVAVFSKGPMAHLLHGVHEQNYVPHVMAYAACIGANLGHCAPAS


What was measured:
[1] = target: T6, human ALPPL2 (recombinant protein) (human, UniProt P10696 20-503, limits assumed); assay: screen of rabbit B-cell clones by ELISA and FACS
T6 construct: biotinylated where captured on streptavidin
Text: (§1) Specific clones were screened and identified by ELISA and high throughput flow cytometry (FIG. 3). Rabbit kidney cells were transfected with either truncated (for ELISA screen) or full-length (for FACS screen) ALPI and ALPPL2.

[2] = target: T1, ALPI (screening and SPR/ELISA protein); assay: screen of rabbit B-cell clones by ELISA and FACS
Text: as §1

[3] = target: T7, human ALPPL2 expressed on cells (human, UniProt P10696 20-503); assay: immunohistochemistry on FFPE ALPPL2+ve cell lines and tumor tissues
T7 construct: whole, on cells; also called placental-like alkaline phosphatase
Method: To enable development of a companion diagnostic, the IHC activity of the antibodies was evaluated (FIG. 5). Antigen retrieval by Proteinase-K digestion, but not heat mediated antigen retrieval, enabled detection. C36, C45 and C130 enabled detection in ALPPL2+ve cell lines (SCH) and formalin fixed paraffin embedded (FFPE) human tumor tissues by IHC. […] This is also indicative the optimal therapeutic window of these antibodies in the clinic.

[4] = target: T2, human ALPPL2 (recombinant protein); assay: SPR
[5] = target: T3, human ALPP (recombinant protein); assay: SPR
[6] = target: T6, human ALPPL2 (recombinant protein); assay: SPR, Biacore T200, ligand captured by streptavidin on CM5 chip, antibody as analyte
Method: (§2) Select clones (C4, C15, C131, C12, C18, C36 and C53) were humanized by grafting the CDRs to a human IgG1 framework. […] Surface plasmon resonance was studied using Biacore T200. Ligands (e.g. ALPPL2 or ALPP) were immobilized on biosensors CM5 chips captured with the streptavidin. Ligands-loaded sensors were then incubated with different concentrations of analyte (recombinant expressed humanized antibody clones) to measure affinity.

[7] = target: human ALPP (recombinant protein) (human, UniProt P05187 23-506, limits assumed); assay: as above
Method: as §2

[8] = target: T7, human ALPPL2 expressed on cells; assay: FACS (FIG. 13)
[9] = target: T8, human ALPP expressed on cells (human, UniProt P05187 23-506); assay: FACS (FIG. 13)
T8 construct: whole, on cells

[10] = target: T2, human ALPPL2 (recombinant protein); assay: BLI
[11] = target: T3, human ALPP (recombinant protein); assay: BLI
[12] = target: T4, human ALPI expressed on cells; assay: FACS on transiently transfected 293T cells (FIG. 13A)
[13] = target: T5, human ALPL expressed on cells; assay: as above
[14] = target: T2, human ALPPL2 (recombinant protein); assay: BLI; single concentration

| Binder | binding result [1] | binding result [2] | binding result [3] | Kd [4] | Kd [5] | binding result [6] | binding result [7] | binding result [8] | binding result [9] | Kd [10] | Kd [11] | binding result [12] | binding result [13] | Kd [14] |
| --- | --- | --- | --- | --- | --- | --- | --- | --- | --- | --- | --- | --- | --- | --- |
| AB1C45 (antibody, V domains shown, Rabbit antibody cloned from a single B cell) VH: QERLEESGGGLVQPEGSLTLTCTASGFSFSSSYYMCWVRQAPGKGMEWIGCIYTGNDDTWYASWAKGRFTVSKTSSTTVTLQMTSLTATDTATYFCARGLSPIDLWGPGTLVTVSS VL: IVMTQTPSSKSVPVGDTVTINCQASESIYNNNNLGWYQQKPGQPPKLLIYWASTLASGVPSRFKGSGSGTQFTLTISDVECDDAATYYCAGYKSRTTDGSAFGGGTEVVVK | binds | no binding | binds |  |  |  |  |  |  |  |  |  |  |  |
| humanized C18 (antibody, human IgG1, V domains shown, CDRs grafted to a human IgG1 framework; recombinant; also called hC18) VH: EVQLVESGGGLVQPGGSLRLSCAASGFSFSSYWTCWVRQAPGKGLEWLGCTDGGSSGDTYYATWAKGRFTISRDNSKNTLYLQMNSLRAEDTAVYYCARNLITWDLWGQGTLVTVSS VL: DIQMTQSPSSLSASVGDRVTITCQASESVYNNNQLSWYQQKPGKVPKLLIYWASKLASGVPSRFSGSGSGTDFTLTISSLQPEDVATYYCAGYKSSITDGNAFGQGTKVEIK |  |  |  | 0.144 nM | 0.526 nM | binds | binds |  |  |  |  |  |  |  |
| AB1C36 (antibody, V domains shown, Rabbit antibody cloned from a single B cell) VH: QSLEESGGDLVKPGASLTLTCTASGFSFSSGYNICWVRQAPGKGLELIACIYTSSSGSTYYASWAKGRFTISKTSSTTVTLQMTSLTVADTATYFCARGEAYYAYGYVGYAYYHGAFDPWGPGTLVTVSS VL: DIVMTQTPASVEAGVGGTVTIKCQASHSISKYFSWYQQKIGQPPKLLIYEASTLASGVPSRFKGSGSGTQFTLTISDLECADAATYYCQSYYYGTSSSYAFGGGTEVVVK | binds | no binding | binds |  |  |  |  |  |  |  |  |  |  | 1.6 nM |
| AB2C130 (antibody, V domains shown, Rabbit antibody cloned from a single B cell) VH: QSLEESGGDLVKPGASLTLTCTASGFSFSSGYWICWVRQAPGKGLEWIACIYTGVGATYYASWAKGRFTISKTSSTTVTLQMTSLTAADTATYFCARDFGGSSGFYFNLWGPGTLVTVSS VL: FELTQTPSSVEAAVGATVTIKCQASQSISNALAWYQQKPGQPPKLLIYSASTLESGVPSRFKGSGSGTEFTLTISDLECADAATYYCQNYYGSTSSSYGVAFGGGTEVVVK | binds | no binding | binds |  |  |  |  |  |  |  |  |  |  | 0.001 nM |

The next lines start with the values.

| binding result [1] | binding result [2] | binding result [3] | Kd [4] | Kd [5] | binding result [6] | binding result [7] | binding result [8] | binding result [9] | Kd [10] | Kd [11] | binding result [12] | binding result [13] | Kd [14] | Binder |
| --- | --- | --- | --- | --- | --- | --- | --- | --- | --- | --- | --- | --- | --- | --- |
|  |  |  |  |  | binds | binds | binds | binds | 0.3 nM | 0.2 nM | no binding | no binding |  | humanized C36 (antibody, human IgG1, V domains shown, CDRs grafted to a human IgG1 framework; recombinant; also called hC36) VH: EVQLVESGGGLVQPGGSLRLSCAASGFSFSSGYNICWVRQAPGKGLELIACIYTSSSGSTYYASWAKGRFTISRDNSKNTLYLQMNSLRAEDTAVYYCARGEAYYAYGYVGYAYYHGAFDPWGQGTLVTVSS VL: DIQMTQSPSSLSASVGDRVTITCQASHSISKYFSWYQQKPGKVPKLLIYEASTLASGVPSRFSGSGSGTDFTLTISSLQPEDVATYYCQSYYYGTSSSYAFGQGTKVEIK |
|  |  |  | 0.014 nM | 0.0001 nM | binds | binds | binds | binds |  |  | no binding | no binding |  | humanized C4 (antibody, V domains shown, CDRs grafted to a human IgG1 framework; recombinant; also called hC4) VH: EVQLVESGGGLVQPGGSLRLSCAASGFTISNNYWICWVRQAPGKGLEWIGCIATGDGSTYYASWAKGRFTISRDNSKNTLYLQMNSLRAEDTAVYYCARGAAGSSWTTYFDFWGQGTLVTVSS VL: DIQMTQSPSSLSASVGDRVTITCQAGQNIDNYLSWYQQKPGKVPKLLIYRASTLASGVPSRFSGSGSGTDFTLTISSLQPEDVATYYCQNNNGGSTFTGFPFGQGTKVEIK |
|  |  |  | 0.08 nM | 0.235 nM | binds | binds |  |  |  |  |  |  |  | humanized C12 (antibody, human IgG1, V domains shown, CDRs grafted to a human IgG1 framework; recombinant; also called hC12) VH: EVQLVESGGGLVQPGGSLRLSCAASGFSFSSSYWISWVRQAPGKGLEWIACIAIGSSGTTYYASWAKGRFTISRDNSKNTLYLQMNSLRAEDTAVYYCARSGDGYTYVELWGQGTLVTVSS VL: DIQMTQSPSSLSASVGDRVTITCQASQSISSYLAWYQQKPGKVPKLLIYRASTLASGVPSRFSGSGSGTDFTLTISSLQPEDVATYYCQNYYDIDDSDNTFGQGTKVEIK |
